Laboratory results as given in PMC6755086.

Target: Xanthamonas campestris p.v. campestris Class 2 OLD protein, full-length (Xcc^FL, residues 1-595) (Xanthamonas campestris p.v. campestris)
Assay: SEC-MALS

Xanthamonas campestris p.v. campestris Class 2 OLD protein, full-length (Xcc^FL, residues 1-595) (enzyme)
stoichiometry N: 4
